Experimental findings from article PMC3169630 are described below.

The target of the first test is recombinant human Siglec-7 Fc fusion protein (human) (UniProt Q9Y286). The test can be described thus: SPR; BIAcore 3000, CM5 chip; Siglec-Fc immobilised at high density (12000–20000 RU); gp120 in PBS or HBS-P injected at 20 µL/min; KD from kinetic curve fitting. In general terms: In SPR one partner is held on a chip, and binding of the other changes the refractive index at the surface.
UniProt Q9Y286, sequence (Q9Y286 19-353): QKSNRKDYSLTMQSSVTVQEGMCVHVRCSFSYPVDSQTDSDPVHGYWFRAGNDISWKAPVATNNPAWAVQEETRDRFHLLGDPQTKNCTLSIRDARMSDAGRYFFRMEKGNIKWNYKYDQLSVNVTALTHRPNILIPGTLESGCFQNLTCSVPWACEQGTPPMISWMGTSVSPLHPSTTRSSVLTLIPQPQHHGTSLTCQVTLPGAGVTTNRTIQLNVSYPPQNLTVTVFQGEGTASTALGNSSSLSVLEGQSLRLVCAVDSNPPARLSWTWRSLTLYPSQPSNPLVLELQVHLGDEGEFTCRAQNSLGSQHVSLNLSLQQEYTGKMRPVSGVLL
The term Kd denotes the concentration at which binding is half-saturated. Turning to “recombinant gp120 from the 93UG037 HIV-1 isolate (monomeric) (natural protein)”, the Kd was 0.094 µM.
Still for that read-out and setting: next, “recombinant gp120 from the 92UG21-9 HIV-1 isolate (natural protein)”: 0.05 µM; “recombinant gp120 from the SIVsmm PBj1.9 isolate (natural protein)”: 0.019 µM.
Still for that read-out and setting: with “recombinant gp120 from the 92US715 HIV-1 isolate (natural protein)” the figure was 0.04 µM; with “recombinant gp120 from the 93MW959 HIV-1 isolate (natural protein)”, 0.02 µM.

In a further test the target is recombinant human Siglec-5 Fc fusion protein (human) (UniProt O15389). The test is described as above.
UniProt O15389, sequence (O15389 17-441): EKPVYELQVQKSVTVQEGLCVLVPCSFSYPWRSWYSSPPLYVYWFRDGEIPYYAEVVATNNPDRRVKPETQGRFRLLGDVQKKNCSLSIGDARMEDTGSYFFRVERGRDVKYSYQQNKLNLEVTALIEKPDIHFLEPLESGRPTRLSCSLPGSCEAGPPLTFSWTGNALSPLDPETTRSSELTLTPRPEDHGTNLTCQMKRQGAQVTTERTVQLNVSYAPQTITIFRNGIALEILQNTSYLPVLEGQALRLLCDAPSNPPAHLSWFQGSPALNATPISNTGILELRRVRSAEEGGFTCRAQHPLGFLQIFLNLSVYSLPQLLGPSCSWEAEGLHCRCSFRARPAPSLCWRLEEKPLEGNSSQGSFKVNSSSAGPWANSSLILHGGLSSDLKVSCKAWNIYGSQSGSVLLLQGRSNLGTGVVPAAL
For “recombinant gp120 from the 93UG037 HIV-1 isolate (monomeric) (natural protein)”, the Kd was found to be 0.054 µM.
On the same count and under the same terms, with “recombinant gp120 from the 92UG21-9 HIV-1 isolate (natural protein)” the figure was 0.05 µM; with “recombinant gp120 from the SIVsmm PBj1.9 isolate (natural protein)”, 0.014 µM; with “recombinant gp120 from the 92US715 HIV-1 isolate (natural protein)”, 0.02 µM.
For the substance “recombinant gp120 from the 93MW959 HIV-1 isolate (natural protein)”, the Kd was 0.015 µM.

A further test concerns the target recombinant human Siglec-3 Fc fusion protein (human) (UniProt P20138). The test is described as above.
UniProt P20138, sequence (P20138 18-259): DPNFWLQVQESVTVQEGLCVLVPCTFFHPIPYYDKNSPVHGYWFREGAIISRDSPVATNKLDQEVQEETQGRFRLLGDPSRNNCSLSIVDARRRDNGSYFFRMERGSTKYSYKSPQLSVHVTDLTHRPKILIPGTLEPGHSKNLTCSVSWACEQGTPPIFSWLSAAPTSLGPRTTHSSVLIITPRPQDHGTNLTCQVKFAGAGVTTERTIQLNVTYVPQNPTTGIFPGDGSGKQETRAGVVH
With “recombinant gp120 from the 93UG037 HIV-1 isolate (monomeric) (natural protein)”, the Kd amounted to 0.051 µM.
“recombinant gp120 from the 92UG21-9 HIV-1 isolate (natural protein)”: the Kd was 0.08 µM.
Same read-out and setting: next, “recombinant gp120 from the SIVsmm PBj1.9 isolate (natural protein)”: 0.18 µM; “recombinant gp120 from the 92US715 HIV-1 isolate (natural protein)”: 0.008 µM; “recombinant gp120 from the 93MW959 HIV-1 isolate (natural protein)”: 0.012 µM.

A further test addresses recombinant human Siglec-7 Fc fusion protein (human) (UniProt Q9Y286). Kind of test: SPR; BIAcore 3000, CM5 chip; Siglec-Fc immobilised at moderate density (2000–7000 RU; capture with immobilized protein A or amine cross-link); gp120 10–500 nM in PBS or HBS-P injected at 20 µL/min; KD from kinetic curve fitting.
Take “recombinant gp120 from the 93UG037 HIV-1 isolate (monomeric) (natural protein)”: the equilibrium dissociation constant (Kd) was determined as 9.9 µM.
Same read-out and setting: with “recombinant gp120 from the 92UG21-9 HIV-1 isolate (natural protein)” the figure was 49.2 µM; with “recombinant gp120 from the SIVsmm PBj1.9 isolate (natural protein)”, 35.4 µM; with “trimeric gp120 from the 93UG037 strain fused with a trimerization domain from T4 bacteriophage fibritin”, 2.7 µM.
As to “recombinant gp120 from the 92US715 HIV-1 isolate (natural protein)”, the Kd was 53.4 µM.

In another test the target is recombinant human Siglec-5 Fc fusion protein (human) (UniProt O15389). The description is as above.
Turning to “recombinant gp120 from the 93UG037 HIV-1 isolate (monomeric) (natural protein)”, the dissociation constant (Kd) is 20.3 µM.
Turning to “recombinant gp120 from the 92UG21-9 HIV-1 isolate (natural protein)”, the Kd came to 47.1 µM.
Regarding “recombinant gp120 from the SIVsmm PBj1.9 isolate (natural protein)”, the Kd was determined as 50.5 µM.
The same measure, in the same setting: next, “trimeric gp120 from the 93UG037 strain fused with a trimerization domain from T4 bacteriophage fibritin”: 5.1 µM; “recombinant gp120 from the 92US715 HIV-1 isolate (natural protein)”: 9.4 µM.

In the next test the target is recombinant human Siglec-3 Fc fusion protein (human) (UniProt P20138). Described as above.
As for “recombinant gp120 from the 92UG21-9 HIV-1 isolate (natural protein)”, the dissociation constant Kd was 3.8 µM.
Still for that read-out and setting: with “recombinant gp120 from the SIVsmm PBj1.9 isolate (natural protein)” the figure was 54.5 µM.
The same measure, in the same setting: with “recombinant gp120 from the 92US715 HIV-1 isolate (natural protein)” the figure was 57.8 µM.

Another test concerns the target recombinant human Siglec-1-Fc (four N-terminal Ig domains of hSiglec-1 fused to the Fc regions of human IgG1) (human). The test is described as above.
As to “recombinant gp120 from the 93UG037 HIV-1 isolate (monomeric) (natural protein)”, the Kd worked out at 6.3 µM.
Same read-out and setting: next, “recombinant gp120 from the 92UG21-9 HIV-1 isolate (natural protein)”: 0.08 µM.
The same measure, in the same setting: next, “recombinant gp120 from the SIVsmm PBj1.9 isolate (natural protein)”: 0.12 µM; “trimeric gp120 from the 93UG037 strain fused with a trimerization domain from T4 bacteriophage fibritin”: 0.9 µM; “recombinant gp120 from the 92US715 HIV-1 isolate (natural protein)”: 0.13 µM.

A further test concerns the target recombinant human Siglec-9 Fc fusion protein (human) (UniProt Q9Y336). The description is as above.
UniProt Q9Y336, sequence (Q9Y336 18-348): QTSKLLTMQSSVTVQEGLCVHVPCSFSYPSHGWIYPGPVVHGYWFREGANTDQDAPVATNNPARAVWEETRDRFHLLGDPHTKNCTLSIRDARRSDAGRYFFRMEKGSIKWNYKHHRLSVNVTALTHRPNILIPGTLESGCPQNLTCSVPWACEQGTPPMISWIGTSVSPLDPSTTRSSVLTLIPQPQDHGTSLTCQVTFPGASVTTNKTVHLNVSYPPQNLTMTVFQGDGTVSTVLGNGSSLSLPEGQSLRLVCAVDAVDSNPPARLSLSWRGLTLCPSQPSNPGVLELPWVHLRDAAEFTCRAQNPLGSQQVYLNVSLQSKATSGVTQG
In the case of “recombinant gp120 from the 93UG037 HIV-1 isolate (monomeric) (natural protein)”, the Kd came out at 0.1 µM.
With “recombinant gp120 from the 92UG21-9 HIV-1 isolate (natural protein)”, the Kd turned out to be 0.05 µM.
On to “recombinant gp120 from the SIVsmm PBj1.9 isolate (natural protein)”, for which the Kd worked out at 0.27 µM.
As to “trimeric gp120 from the 93UG037 strain fused with a trimerization domain from T4 bacteriophage fibritin”, the Kd came to 0.08 µM.
On the same count and under the same terms, with “recombinant gp120 from the 92US715 HIV-1 isolate (natural protein)” the figure was 0.023 µM.
